The values below come from US20220135672A1 (Hoffmann-La Roche, published 2022).

Assay [1] deals with T1, rabbit-CD19-GPI anchor-FLAG-tag fusion polypeptide (on transfected CHO-S / HEK293F cells) (rabbit; human).
T1 sequence: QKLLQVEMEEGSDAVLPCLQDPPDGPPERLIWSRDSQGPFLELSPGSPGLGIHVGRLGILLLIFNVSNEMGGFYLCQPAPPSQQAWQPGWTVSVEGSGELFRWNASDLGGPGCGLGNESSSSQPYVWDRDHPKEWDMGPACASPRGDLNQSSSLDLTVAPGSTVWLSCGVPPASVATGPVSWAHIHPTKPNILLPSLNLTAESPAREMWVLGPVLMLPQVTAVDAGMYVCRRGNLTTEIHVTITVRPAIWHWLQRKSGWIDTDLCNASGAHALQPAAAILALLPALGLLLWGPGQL
Kind of assay: FACS, HEK293F transfected with CD19 expression plasmid, detection with anti-mIgG-APC. (A flow cytometer gives signals particle by particle.)

Assay [2] has the same target. The assay is described as follows: FACS, CHO-S transfected with CD19 expression plasmid, detection with anti-mIgG-APC.
In assay [3] the target is T2, rabbit CD19 (native, on the surface of rabbit B-cells) (rabbit).
T2 construct: Natural CD19 on rabbit PBMC / B-cells; also called rbCD19; native rabbit CD19
T2 chain: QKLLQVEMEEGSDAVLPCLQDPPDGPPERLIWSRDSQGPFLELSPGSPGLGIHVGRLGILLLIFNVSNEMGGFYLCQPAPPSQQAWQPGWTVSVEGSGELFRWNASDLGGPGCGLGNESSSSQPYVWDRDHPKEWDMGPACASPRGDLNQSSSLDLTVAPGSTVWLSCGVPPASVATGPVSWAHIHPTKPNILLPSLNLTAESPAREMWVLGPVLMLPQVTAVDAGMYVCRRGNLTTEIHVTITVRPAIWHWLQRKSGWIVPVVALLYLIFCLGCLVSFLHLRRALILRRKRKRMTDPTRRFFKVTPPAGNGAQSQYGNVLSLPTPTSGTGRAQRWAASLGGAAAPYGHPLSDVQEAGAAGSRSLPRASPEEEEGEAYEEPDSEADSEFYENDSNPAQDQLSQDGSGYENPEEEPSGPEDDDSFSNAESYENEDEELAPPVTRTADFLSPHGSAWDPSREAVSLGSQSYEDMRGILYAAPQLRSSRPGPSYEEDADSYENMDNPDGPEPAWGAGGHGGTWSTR
The assay is described as follows: FACS, rabbit PBMC. The protocol:
FACS analysis was applied for screening of hybridomas and to identify those hybridomas that secrete antibodies against rabbit CD19. All IgG-producing hybridomas were screened by FACS analysis of rabbit peripheral blood mononuclear cells (PBMCs) double stained with a rabbit IgM binding antibody for B-cell identification.
Freshly isolated rabbit (PBMCs) were incubated with FITC labeled anti-rabbit IgM antibody (Southern Biotech) and IgG-positive hybridoma supernatants on ice. After 45 min. incubation the PBMCs were washed once with ice cold PBS and resuspended in an PE-labeled anti-mouse IgG antibody (Invitrogen) binding the murine IgG of the hybridoma supernatant. After another 45 min. incubation on ice the cells were washed again once with ice cold PBS. Finally, the PBMCs were resuspended in ice cold PBS and immediately subjected to the FACS analyses. DAPI-HCl in a concentration of 2 μg/ml (Cayman) was added prior to the FACS analyses to discriminate between dead and live cells. A Becton Dickinson FACS Canto II device equipped with a computer and the FACSDiva software (BD Biosciences) were used for the analysis.

B1: antibody 1H2 (mouse monoclonal anti-rabbit CD19 antibody) (antibody, mouse IgG2a, kappa, V domains shown)
VH: QVQLQQSGPEVVKPGASVRMSCKASGYIFTNHYIHWMKQRPGQGLEWVGCIYPGNVNSNYNEKFKGKATLTADKSSSTAYLQLSSLTSEDSAVYFCARGGYYGSSYSWFAYWGQGTLVIVSA
VL: DIVMTQSPATLSVTPGDRVSLSCRASQSISDFLHWYQQSSHESPRLLIKYASQSISGIPSRFSGSGSGSDFTLTINSVEPEDVGVYYCQNGHSFPYTFGGGTNLEIKR
notes: Mouse IgG from hybridoma; the chains are built here from variable domain plus constant region so that no leader is included; Tested as hybridoma supernatant, and later purified and labelled with Alexa 647 or biotin; also called clone 1H2; anti-CD19 A647
On to B1, for which the stained cells, absolute [n] in assay [1] was 7290 n; in assay [2], 975 n. Moreover, the stained cells, relative to total number [%] in assay [1] was 35.9%; in assay [2], 4.6%. In addition, the “Ratio Q2/IgM (%)” value in assay [3] worked out at 93.2%.
